# B1: α-GCGR: potent monoclonal GCGR blocking antibody, HCVR/LCVR SEQ ID NOs: 86/88 (antibody, V domains shown)
# VH: EVQLVESGGGLVQPGGSLRLSCAASGFTFSNYLMNWVRQAPGKGLEWLANIQEDGIEKYYVDSVKGRFTISRDNAKNSLYLQMNSLRAEDTAVYYCAREPSHYDILTGYDYYYGMDVWGQGTTVTVS
# VL: DIQMTQSPSSLSASVGDRVTITCRASQGIRNDLGWYQQKPGKAPKRLIYAASSLQSGVPSRFSGSGSGTEFILTVSSLQPEDFATYYCLQYNSNPFTFGPGTKVDIK
# Tested on: isolated pancreatic islets from mice
# Experiment: RNAseq gene expression in isolated pancreatic islets of GCGR antibody treated mice (Table 5)
# Format: in vivo, mouse
# Settings: isolated islets, 10 mg/kg, 21 days
# Method: Mouse islets were isolated by density gradient separation after perfusing pancreas with Liberase TL (Roche, Indianapolis) through the common bile duct. Following a 13 min digestion at 37° C., the pancreas solution was washed and filtered through a 400-μm wire mesh strainer and islets were separated by Histopaque gradient centrifugation (Sigma-Aldrich). Isolated islets were cultured overnight in RPMI-1640 medium supplemented with 10% (v/v) FBS, 10 mM HEPES, 50 μM β-mercaptoethanol, 1.0 mM sodium-pyruvate, 100 U/mL penicillin and 100 μg/mL streptomycin at 37° C. with a 5% CO2 in air atmosphere.
# Total RNA was purified from all samples using MagMAX™-96 for Microarrays Total RNA Isolation Kit (Ambion by Life Technologies) according to manufacturer's specifications. Genomic DNA was removed using MagMAX™Turbo™DNase Buffer and TURBO DNase from the MagMAX kit listed above (Ambion by Life Technologies). mRNA was purified from total RNA using Dynabeads® mRNA Purification Kit (Invitrogen). Strand-specific RNA-seq libraries were prepared using ScriptSeq™ mRNA-Seq Library Preparation Kit (Epicentre). Twelve-cycle PCR was performed to amplify libraries. Sequencing was performed on Illumina HiSeq®2000 (Illumina) by multiplexed single-read run with 33 cycles.
# Raw sequence data (BCL files) were converted to FASTQ format via Illumina Casava 1.8.2. Reads were decoded based on their barcodes and read quality was evaluated with FastQC (http://www.bioinformatics.babraham.ac.uk/projects/fastqc/). Reads were mapped to the mouse transcriptome (NCBI GRCh37) using CLC Genomics Workbench Version 7.0 (CLCbio) or TopHat2 (Version 2.0.10) allowing two mismatches. Reads mapped to the exons of a gene were summed at the gene level. To identify differentially expressed genes, the statistical significance (p-value) of the differential expressions was assessed with DESeq package (version 1.6 or 2.0). […]
molecule,measurement,setting,value
B1,1700086L19Rik RPKM,gene 1700086L19Rik,119.24 RPKM
same,1810011O10Rik RPKM,gene 1810011O10Rik,5.88 RPKM
same,1810041L15Rik RPKM,gene 1810041L15Rik,3.14 RPKM
same,4930539E08Rik RPKM,gene 4930539E08Rik,5.64 RPKM
same,9030617O03Rik RPKM,gene 9030617O03Rik,5.31 RPKM
same,AW551984 RPKM,gene AW551984,5.27 RPKM
same,Acta1 RPKM,gene Acta1,1.05 RPKM
same,Agpat4 RPKM,gene Agpat4,4.89 RPKM
same,Agt RPKM,gene Agt,22.33 RPKM
same,Ang RPKM,gene Ang,69.38 RPKM
same,Ano1 RPKM,gene Ano1,1.26 RPKM
same,Anxa3 RPKM,gene Anxa3,11.67 RPKM
same,Anxa13 RPKM,gene Anxa13,0.65 RPKM
same,Apoa2 RPKM,gene Apoa2,10.76 RPKM
same,Apod RPKM,gene Apod,2.75 RPKM
same,Apol7a RPKM,gene Apol7a,0.28 RPKM
same,Arg1 RPKM,gene Arg1,59.62 RPKM
same,Arx RPKM,gene Arx,6.42 RPKM
same,Asb11 RPKM,gene Asb11,1.00 RPKM
same,Avpr1b RPKM,gene Avpr1b,4.45 RPKM
same,Basp1 RPKM,gene Basp1,11.31 RPKM
same,Blnk RPKM,gene Blnk,3.87 RPKM
same,Bok RPKM,gene Bok,1.31 RPKM
same,Car9 RPKM,gene Car9,0.79 RPKM
same,Cdc42ep1 RPKM,gene Cdc42ep1,1.77 RPKM
same,Clec2d RPKM,gene Clec2d,9.10 RPKM
same,Clic6 RPKM,gene Clic6,0.26 RPKM
same,Clu RPKM,gene Clu,481.69 RPKM
same,Cnih2 RPKM,gene Cnih2,1.98 RPKM
same,Cobl RPKM,gene Cobl,2.27 RPKM
same,Ctse RPKM,gene Ctse,1.73 RPKM
same,Dbpht2 RPKM,gene Dbpht2,27.59 RPKM
same,Dmbt1 RPKM,gene Dmbt1,10.80 RPKM
same,Dpp6 RPKM,gene Dpp6,8.00 RPKM
same,Drc1 RPKM,gene Drc1,4.67 RPKM
same,Eda2r RPKM,gene Eda2r,1.98 RPKM
same,Eef1a2 RPKM,gene Eef1a2,35.85 RPKM
same,Ehf RPKM,gene Ehf,10.90 RPKM
same,Etv1 RPKM,gene Etv1,33.99 RPKM
same,F5 RPKM,gene F5,1.71 RPKM
same,Ffar4 RPKM,gene Ffar4,5.88 RPKM
same,Fgd3 RPKM,gene Fgd3,0.83 RPKM
same,Fgl2 RPKM,gene Fgl2,37.91 RPKM
same,Gamt RPKM,gene Gamt,0.58 RPKM
same,Gbp8 RPKM,gene Gbp8,7.39 RPKM
same,Gbp9 RPKM,gene Gbp9,4.03 RPKM
same,Gc RPKM,gene Gc,153.00 RPKM
same,Gcg RPKM,gene Gcg,63254.16 RPKM
same,Gcnt4 RPKM,gene Gcnt4,3.02 RPKM
same,Gfra1 RPKM,gene Gfra1,3.43 RPKM
same,Gfra3 RPKM,gene Gfra3,8.18 RPKM
same,Gm609 RPKM,gene Gm609,6.28 RPKM
same,Gm20554 RPKM,gene Gm20554,2.33 RPKM
same,Gng2 RPKM,gene Gng2,7.35 RPKM
same,Gpr119 RPKM,gene Gpr119,15.35 RPKM
same,Gpx3 RPKM,gene Gpx3,638.48 RPKM
same,Hspb1 RPKM,gene Hspb1,10.32 RPKM
same,Ifih1 RPKM,gene Ifih1,10.68 RPKM
same,Igsf23 RPKM,gene Igsf23,0.40 RPKM
same,Irx1 RPKM,gene Irx1,5.96 RPKM
same,Irx2 RPKM,gene Irx2,8.92 RPKM
same,Itgb4 RPKM,gene Itgb4,1.65 RPKM
same,Jchain RPKM,gene Jchain,74.91 RPKM
same,Kcna2 RPKM,gene Kcna2,0.81 RPKM
same,Kcnab3 RPKM,gene Kcnab3,2.28 RPKM
same,Kcnf1 RPKM,gene Kcnf1,0.86 RPKM
same,Kcnk3 RPKM,gene Kcnk3,8.14 RPKM
same,Klb RPKM,gene Klb,4.59 RPKM
same,Klhl13 RPKM,gene Klhl13,5.34 RPKM
same,Krt19 RPKM,gene Krt19,26.52 RPKM
same,Krt20 RPKM,gene Krt20,0.65 RPKM
same,Krt23 RPKM,gene Krt23,2.17 RPKM
same,Lamb3 RPKM,gene Lamb3,1.16 RPKM
same,Mafb RPKM,gene Mafb,24.19 RPKM
same,Mamld1 RPKM,gene Mamld1,5.64 RPKM
same,Mapk13 RPKM,gene Mapk13,2.86 RPKM
same,Matn2 RPKM,gene Matn2,2.36 RPKM
same,Ndst4 RPKM,gene Ndst4,6.30 RPKM
same,Necab2 RPKM,gene Necab2,7.29 RPKM
same,Nefm RPKM,gene Nefm,6.35 RPKM
same,Npr1 RPKM,gene Npr1,3.07 RPKM
same,Nptxr RPKM,gene Nptxr,4.03 RPKM
same,Nsg2 RPKM,gene Nsg2,3.49 RPKM
same,Ntn1 RPKM,gene Ntn1,0.65 RPKM
same,Nudt11 RPKM,gene Nudt11,8.49 RPKM
same,Nyap1 RPKM,gene Nyap1,3.82 RPKM
same,Ocrl RPKM,gene Ocrl,37.04 RPKM
same,Oit1 RPKM,gene Oit1,4.78 RPKM
same,Olfm3 RPKM,gene Olfm3,3.59 RPKM
same,Oxtr RPKM,gene Oxtr,7.25 RPKM
same,Pdk4 RPKM,gene Pdk4,25.17 RPKM
same,Peg10 RPKM,gene Peg10,17.17 RPKM
same,Pla2g2d RPKM,gene Pla2g2d,5.69 RPKM
same,Ptf1a RPKM,gene Ptf1a,0.52 RPKM
same,Ptprd RPKM,gene Ptprd,4.67 RPKM
same,Ptprg RPKM,gene Ptprg,3.12 RPKM
same,Rasd1 RPKM,gene Rasd1,10.12 RPKM
same,Rbms3 RPKM,gene Rbms3,2.38 RPKM
same,Rbp4 RPKM,gene Rbp4,210.71 RPKM
same,Rcn1 RPKM,gene Rcn1,12.75 RPKM
same,Rragb RPKM,gene Rragb,33.15 RPKM
same,Sema3e RPKM,gene Sema3e,2.28 RPKM
same,Serpinb6b RPKM,gene Serpinb6b,1.59 RPKM
same,Serpine2 RPKM,gene Serpine2,10.10 RPKM
same,Serping1 RPKM,gene Serping1,82.99 RPKM
same,Sftpd RPKM,gene Sftpd,4.65 RPKM
same,Sgce RPKM,gene Sgce,10.55 RPKM
same,Sh2d4a RPKM,gene Sh2d4a,0.65 RPKM
same,Sh3bgr RPKM,gene Sh3bgr,3.39 RPKM
same,Slc38a3 RPKM,gene Slc38a3,0.79 RPKM
same,Slc38a5 RPKM,gene Slc38a5,52.26 RPKM
same,Smarca1 RPKM,gene Smarca1,15.49 RPKM
same,Spns2 RPKM,gene Spns2,0.98 RPKM
same,St8sia1 RPKM,gene St8sia1,2.35 RPKM
same,Syt16 RPKM,gene Syt16,2.26 RPKM
same,Tead2 RPKM,gene Tead2,2.17 RPKM
same,Tesc RPKM,gene Tesc,4.72 RPKM
same,Tmsb15b1 RPKM,gene Tmsb15b1,28.28 RPKM
same,Tspan1 RPKM,gene Tspan1,1.40 RPKM
same,Ttr RPKM,gene Ttr,5356.49 RPKM
same,Vnn1 RPKM,gene Vnn1,0.42 RPKM
same,Vwde RPKM,gene Vwde,5.37 RPKM
same,Wfdc16 RPKM,gene Wfdc16,5.87 RPKM
same,Wnk3 RPKM,gene Wnk3,9.33 RPKM

# Reference: patent US20190248888A1, “METHODS OF LOWERING BLOOD GLUCOSE LEVELS” (Regeneron Pharmaceuticals, Inc., priority 2016, published 2019)
